Measurements from US20070265198A1 (ROCKEFELLER UNIVERSITY, published 2007).

How the values were obtained:
[1] = target: T1, PlyC-A, the PlyC heavy chain (C1 bacteriophage lysin, ORF 11)
T1 chain: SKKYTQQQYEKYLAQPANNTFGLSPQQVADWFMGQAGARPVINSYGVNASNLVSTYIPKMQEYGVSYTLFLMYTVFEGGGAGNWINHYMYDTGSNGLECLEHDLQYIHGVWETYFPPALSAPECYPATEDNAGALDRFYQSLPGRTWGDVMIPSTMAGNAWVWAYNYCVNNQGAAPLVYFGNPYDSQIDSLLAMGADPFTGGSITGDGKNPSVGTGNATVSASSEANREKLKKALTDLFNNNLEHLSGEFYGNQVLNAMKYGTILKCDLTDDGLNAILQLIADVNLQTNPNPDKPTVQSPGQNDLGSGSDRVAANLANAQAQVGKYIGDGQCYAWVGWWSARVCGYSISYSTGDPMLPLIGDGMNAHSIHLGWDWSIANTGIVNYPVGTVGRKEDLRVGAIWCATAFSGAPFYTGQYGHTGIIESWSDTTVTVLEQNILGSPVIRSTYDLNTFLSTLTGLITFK

[2] = target: T2, PlyC-A, the PlyC heavy chain (C1 bacteriophage lysin, ORF 11) (C1 bacteriophage, UniProt Q7Y3F1 2-465); assay: N-terminal sequencing signals of the native enzyme (55 pm PlyC-B, 12 pm PlyC-A)
T2 construct: 50 kDa subunit of the PlyC lysin; also called heavy subunit (ORF 11); plyCA gene product
T2 sequence: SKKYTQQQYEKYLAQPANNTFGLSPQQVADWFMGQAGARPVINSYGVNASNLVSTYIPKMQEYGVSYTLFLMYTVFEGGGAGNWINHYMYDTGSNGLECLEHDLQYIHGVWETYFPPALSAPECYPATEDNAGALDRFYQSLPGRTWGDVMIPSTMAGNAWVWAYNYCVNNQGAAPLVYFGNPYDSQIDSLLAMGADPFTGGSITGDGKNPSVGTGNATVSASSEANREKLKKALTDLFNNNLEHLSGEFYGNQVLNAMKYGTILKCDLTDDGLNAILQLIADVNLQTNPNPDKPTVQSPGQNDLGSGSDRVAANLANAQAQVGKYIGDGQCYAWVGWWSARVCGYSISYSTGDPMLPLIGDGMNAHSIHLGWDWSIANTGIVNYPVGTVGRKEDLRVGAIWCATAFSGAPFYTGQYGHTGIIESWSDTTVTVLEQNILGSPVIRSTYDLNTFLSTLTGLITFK

[3] = target: T2, PlyC-A, the PlyC heavy chain (C1 …); assay: 35S-methionine labelling of purified PlyC, SDS-PAGE bands counted by scintillation (n=20), cpm per methionine
Method: ³⁵S-methionine labeling of PlyC. […] A fresh 20 ml overnight culture of B834/pBAD24::plyC was washed twice with M9 media, and used to inoculate a 2 L flask of M9 minimal media supplemented with 2 mCi ³⁵S-methionine (New England Nuclear). Expression of ³⁵S-Methionine-PlyC was induced with 0.5% arabinose and the enzyme was purified as described above. The heavy and light chains were resolved by SDS-PAGE using 15 μg of labeled PlyC loaded each lane (n=20). Individual bands were cut out of the gel, suspended in 1 ml of SigmaFluor scintillation fluid (Sigma), and counts per minute (cpm) of β-activity was assessed on a Beckman LS5000TD counter.
In order to achieve a mass of 100 kDa, multiple copies of one or both subunits must exist. Thus, PlyC is a multimer. Circumstantial evidence for a molar ratio of 5 light chains to one heavy chain was obtained from N-terminal sequencing of the native enzyme, which yielded a 55 pm signal for PlyC-B and a 12 pm signal for PlyC-A (data not shown). […] Therefore, to further investigate the ratios of PlyC-A and PlyC-B, we cloned plyC into B834 E. coli cells, which are auxotrophic for methionine. […] We were able to enumerate an average signal, measured in counts per minute, for each chain by placing gel-extracted bands (n=20) in scintillation fluid and measuring the β activity (Table IV). […]

B1: PlyC-B, the PlyC light chain (C1 bacteriophage lysin, ORF 9) (enzyme)
chain: SKINVNVENVSGVQGFLFHTDGKESYGYRAFINGVEIGIKDIETVQGFQQIIPSINISKSDVEAIRKAMKK
notes: 8 kDa subunit of the PlyC lysin, a 72 amino acid polypeptide; About six copies per PlyC-A are proposed in the native multimer; also called light subunit (ORF 9); plyCB gene product
PlyC lytic activity of a double transformant (pBAD33::plyCB and pBAD24::plyCA in one host) [1]: Upon induction with 0.5% arabinose, the double transformant contained PlyC activity
activity of the refolded PlyC-B and PlyC-A mixture, normalized to the native PlyC clone (FIG. 3, lane 5) [1]: reconstituted ~25% of the wild-type activity (lane 5)
lytic activity on group A streptococci (chains expressed individually, mixed, incubated 1 hr at room temperature) [1]: When both chains were mixed together and allowed to incubate at room temperature for 1 hr, again no activity was noted
lytic activity on group A streptococci after urea denaturation and refolding of the mixed chains, relative to wild-type PlyC [1]: we were able to reconstitute ~30% of wild-type activity
lytic activity on group A streptococci of a lil- chimera with full-length plyCB and plyCA [1]: a lil- chimera, which contained full-length plyCB and plyCA, possessed wild-type PlyC activity
molar ratio of light chains to heavy chain [2]: 5 light chains per heavy chain
Avg. ratio PlyC-A:PlyC-B [3]: 6.17 PlyC-B per PlyC-A
